Residue numbers refer to the chain shown, from its start. Names may count otherwise. Where no end group is shown, it is not given here.
T1: Human TROP2 ECD (31-274 AA), biotinylated (human, UniProt P09758 31-274, biotinylated (site not stated))
T1 construct: captured on neutravidin plates; also called TROP2-biotin; Trop2-biotin
T1 sequence: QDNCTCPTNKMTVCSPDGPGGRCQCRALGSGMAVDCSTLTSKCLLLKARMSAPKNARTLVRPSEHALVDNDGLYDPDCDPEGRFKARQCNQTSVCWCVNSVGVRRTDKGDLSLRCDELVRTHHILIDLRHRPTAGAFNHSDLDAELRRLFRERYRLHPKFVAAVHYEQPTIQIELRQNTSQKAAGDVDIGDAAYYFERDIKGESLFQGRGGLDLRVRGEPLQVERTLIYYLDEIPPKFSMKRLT

T2: Peptide-3 (cysteine pairing not given here; also: biotinylated, site not given here)
T2 peptide: IDFCMLYNWPICAG

T3: Peptide-6 (cysteine pairing not given here; also: biotinylated, site not given here)
T3 peptide: IDFCLIYNWPVCDT

T4: Peptide-7 (cysteine pairing not given here; also: biotinylated, site not given here)
T4 peptide: EDFCKLYNWPICYQ

T5: Peptide-12 (cysteine pairing not given here; also: biotinylated (site not given here))
T5 peptide: PDFCAVYRWPICYQ

T6: Peptide-14 (cysteine pairing not given here; also: biotinylated (site not given here))
T6 peptide: LDFCKIYDWPICHL

T7: Peptide-17 (cysteine pairing not given here; also: biotinylated (site not given here))
T7 peptide: IDFCLLYDWPICGR

T8: Peptide-24 (cysteine pairing not given here; also: biotinylated (site not given here))
T8 peptide: SVLFCVKNLYCWVT

T9: Peptide-28 (cysteine pairing not given here; also: biotinylated, site not given here)
T9 peptide: NYLLCVKNLYCWIV

T10: Peptide-31 (cysteine pairing not given here; also: biotinylated, site not given here)
T10 peptide: YSLVCVKNLYCWNL

T11: Peptide-2 (cysteine pairing not given here; also: biotinylated (site not given here))
T11 peptide: IDFCAVYKWPVCQV

T12: Peptide-8 (cysteine pairing not given here; also: biotinylated, site not given here)
T12 peptide: VDFCGLYHWPICYQ

T13: Peptide-43 (cysteine pairing not given here; also: biotinylated, site not given here)
T13 peptide: VDFCALYHWPICYQ

T14: Peptide-45 (cysteine pairing not given here; also: biotinylated, site not given here)
T14 peptide: VDFCYQYGWPICSRVD

T15: Peptide-47 (cysteine pairing not given here; also: biotinylated, site not given here)
T15 peptide: VDFCYQYGWPICSRLY

T16: Peptide-48 (cysteine pairing not given here; also: biotinylated, site not given here)
T16 peptide: VDFCYMYKWPVCYP

T17: Peptide-49 (cysteine pairing not given here; also: biotinylated, site not given here)
T17 peptide: IDFCLLYKWPVCEL

T18: Peptide-50 (cysteine pairing not given here; also: biotinylated, site not given here)
T18 peptide: VDFCAIYSWPICKI

T19: Peptide-51 (cysteine pairing not given here; also: biotinylated, site not given here)
T19 peptide: VDFCGLYHWPICYQV

T20: Peptide-52 (cysteine pairing not given here; also: biotinylated, site not given here)
T20 peptide: VDFCYQYAWPVCSTGD

T21: Peptide-53 (cysteine pairing not given here; also: biotinylated, site not given here)
T21 peptide: IDFCRVYDWPVCSL

T22: Peptide-54 (cysteine pairing not given here; also: biotinylated, site not given here)
T22 peptide: VDFCYRYSWPVCWA

T23: Peptide-55 (cysteine pairing not given here; also: biotinylated, site not given here)
T23 peptide: VDFCYKYNWPICSR

T24: Peptide-56 (cysteine pairing not given here; also: biotinylated, site not given here)
T24 peptide: VDFCYQYGWPICSRV

T25: Peptide-57 (cysteine pairing not given here; also: biotinylated, site not given here)
T25 peptide: IDFCYRYGWPVCQT

T26: Peptide-59 (cysteine pairing not given here; also: biotinylated, site not given here)
T26 peptide: VDFCALYNWPVCAI

T27: Peptide-60 (cysteine pairing not given here; also: biotinylated, site not given here)
T27 peptide: VDFCNLYHWPICAI

T28: Peptide-61 (cysteine pairing not given here; also: biotinylated, site not given here)
T28 peptide: VDFCALYHWPVCGL

B1: TBD-21 (HC F108A) (Fab, V domains shown)
VH: QVQLQQSGSELKKPGASVKVSCKASGYTFTNYGMNWVKQAPGQGLKWMGWINTYTGEPTYTDDFKGRFAFSLDTSVSTAYLQISSLKADDTAVYFCARGGFGSSYWYADVWGQGSLVTVSS
VL: DIQLTQSPSSLSASVGDRVSITCKASQDVSIAVAWYQQKPGKAPKLLIYSASYRYTGVPDRFSGSGSGTDFTLTISSLQPEDFAVYYCQQHYITPLTFGAGTKVEIKR
notes: Fab; also called HC F108A mutant
B2: TBD-11 (HC R98A) (Fab, V domains shown)
VH: B1 VH with R98A, A108F
VL: B1 VL
notes: Fab; also called HC R98A mutant
B3: TBD-17 (HC S104A) (Fab, V domains shown)
VH: B1 VH with S104A, A108F
VL: B1 VL
notes: Fab; also called HC S104A mutant
B4: TBD-6 (LC I93A) (Fab, V domains shown)
VH: B1 VH with A108F
VL: B1 VL with I93A
notes: Fab; also called LC I93A mutant
B5: TBD-1 wt (Fab, V domains shown)
VH: B1 VH with A108F
VL: B1 VL
notes: Fab; the heavy chain entry is VH-CH1; also called wild-type anti-TROP2 Fab (hRS7); TROP2 Fab

molecular target: T1, Human TROP2 ECD (31-274 AA), …; assay: ELISA, Fab on captured biotin-TROP2

| EC50 [nM] | Binder |
| --- | --- |
| 4.2 | B1 |
| 3.4 | B2 |
| 0.3 | B3 |
| 0.3 | B4 |

molecular target: T1, Human TROP2 ECD (31-274 AA), …; assay: ELISA, Fab on captured biotin-TROP2; remark: another data set of the same source

| EC50 [nM] | Binder |
| --- | --- |
| 3.4 | B2 |
| 0.3 | B4 |

Molecular target: T2, Peptide-3
Assay: ELISA, Fab on captured biotin-peptide
Procedure: (§1) Binding was measured in a standard ELISA format. […] Bound TBDs were detected using a standard horse radish peroxidase conjugate secondary antibody. The ELISA signal was plotted versus the log-scale concentration of TBD. The concentrations of TBD required to observe half maximal binding signal (EC₅₀s) were calculated using Graphpad Prism software.

| EC50 [nM] | Binder |
| --- | --- |
| 12.8 | B5 |
| 12.3 | B1 |
| 246 | B2 |
| 6.4 | B3 |
| 11.4 | B4 |

Molecular target: T3, Peptide-6
Assay: ELISA, Fab on captured biotin-peptide
Procedure: as §1

| EC50 [nM] | Binder |
| --- | --- |
| 28.5 | B5 |
| 24.9 | B1 |
| 363 | B2 |
| 10.1 | B3 |
| 15 | B4 |

Molecular target: T4, Peptide-7
Assay: ELISA, Fab on captured biotin-peptide
Procedure: as §1

| EC50 [nM] | Binder |
| --- | --- |
| 37.5 | B5 |
| 27.4 | B1 |
| 343 | B2 |
| 15.6 | B3 |
| 59.6 | B4 |

Molecular target: T5, Peptide-12
Assay: ELISA, Fab on captured biotin-peptide
Procedure: as §1

| EC50 [nM] | Binder |
| --- | --- |
| 35.9 | B5 |
| 10.1 | B1 |
| 157 | B2 |
| 6.8 | B3 |
| 18.2 | B4 |

Molecular target: T6, Peptide-14
Assay: ELISA, Fab on captured biotin-peptide
Procedure: as §1

| EC50 [nM] | Binder |
| --- | --- |
| 379 | B5 |
| 53.3 | B1 |
| 332 | B2 |
| 71 | B3 |
| 145 | B4 |

Molecular target: T7, Peptide-17
Assay: ELISA, Fab on captured biotin-peptide
Procedure: as §1

| EC50 [nM] | Binder |
| --- | --- |
| 132 | B5 |
| 16.4 | B1 |
| 191 | B2 |
| 8.5 | B3 |
| 16.5 | B4 |

Molecular target: T8, Peptide-24
Assay: ELISA, Fab on captured biotin-peptide
Procedure: as §1

| EC50 [nM] | Binder |
| --- | --- |
| 142 | B1 |
| 133 | B3 |

Molecular target: T9, Peptide-28
Assay: ELISA, Fab on captured biotin-peptide
Procedure: as §1

| EC50 [nM] | Binder |
| --- | --- |
| 146 | B1 |
| 247 | B3 |
| 681 | B4 |

Molecular target: T10, Peptide-31
Assay: ELISA, Fab on captured biotin-peptide
Procedure: as §1

| EC50 [nM] | Binder |
| --- | --- |
| 42.1 | B5 |
| 164 | B3 |
| 791 | B4 |

Molecular target: T11, Peptide-2
Assay: ELISA, Fab on captured biotin-peptide
Procedure: as §1

| EC50 [nM] | Binder |
| --- | --- |
| 13.7 | B5 |
| 12.9 | B1 |
| 204 | B2 |
| 5.7 | B3 |
| 9.9 | B4 |

Molecular target: T2, Peptide-3
Assay: ELISA, Fab on captured biotin-peptide
Remark: another data set of the same source
Procedure: as §1

| EC50 [nM] | Binder |
| --- | --- |
| 91.5 | B5 |
| 296 | B2 |
| 12.5 | B4 |

Molecular target: T12, Peptide-8
Assay: ELISA, Fab on captured biotin-peptide
Procedure: as §1

| EC50 [nM] | Binder |
| --- | --- |
| 55.6 | B5 |
| 319 | B2 |
| 12.2 | B4 |

Molecular target: T13, Peptide-43
Assay: ELISA, Fab on captured biotin-peptide
Procedure: as §1

| EC50 [nM] | Binder |
| --- | --- |
| 28.6 | B5 |
| 43.6 | B2 |
| 5.3 | B4 |

Molecular target: T14, Peptide-45
Assay: ELISA, Fab on captured biotin-peptide
Procedure: as §1

| EC50 [nM] | Binder |
| --- | --- |
| 50.8 | B5 |
| 138 | B2 |
| 32.6 | B4 |

Molecular target: T15, Peptide-47
Assay: ELISA, Fab on captured biotin-peptide
Procedure: as §1

| EC50 [nM] | Binder |
| --- | --- |
| 113 | B5 |
| 304 | B2 |
| 79.9 | B4 |

Molecular target: T16, Peptide-48
Assay: ELISA, Fab on captured biotin-peptide
Procedure: as §1

| EC50 [nM] | Binder |
| --- | --- |
| 21.5 | B5 |
| 42.4 | B2 |
| 12.2 | B4 |

Molecular target: T17, Peptide-49
Assay: ELISA, Fab on captured biotin-peptide
Procedure: as §1

| EC50 [nM] | Binder |
| --- | --- |
| 296 | B5 |
| 130 | B2 |
| 18.3 | B4 |

Molecular target: T18, Peptide-50
Assay: ELISA, Fab on captured biotin-peptide
Procedure: as §1

| EC50 [nM] | Binder |
| --- | --- |
| 96.2 | B5 |
| 35.5 | B2 |
| 21.9 | B4 |

Molecular target: T19, Peptide-51
Assay: ELISA, Fab on captured biotin-peptide
Procedure: as §1

| EC50 [nM] | Binder |
| --- | --- |
| 45.1 | B5 |
| 244 | B2 |
| 13.5 | B4 |

Molecular target: T20, Peptide-52
Assay: ELISA, Fab on captured biotin-peptide
Procedure: as §1

| EC50 [nM] | Binder |
| --- | --- |
| 127 | B5 |
| 39.3 | B4 |

Molecular target: T21, Peptide-53
Assay: ELISA, Fab on captured biotin-peptide
Procedure: as §1

| EC50 [nM] | Binder |
| --- | --- |
| 45.3 | B5 |
| 32.5 | B2 |
| 4.4 | B4 |

Molecular target: T22, Peptide-54
Assay: ELISA, Fab on captured biotin-peptide
Procedure: as §1

| EC50 [nM] | Binder |
| --- | --- |
| 63.5 | B5 |
| 147 | B2 |
| 30 | B4 |

Molecular target: T23, Peptide-55
Assay: ELISA, Fab on captured biotin-peptide
Procedure: as §1

| EC50 [nM] | Binder |
| --- | --- |
| 15.7 | B5 |
| 36.8 | B2 |
| 6.1 | B4 |

Molecular target: T24, Peptide-56
Assay: ELISA, Fab on captured biotin-peptide
Procedure: as §1

| EC50 [nM] | Binder |
| --- | --- |
| 52.8 | B5 |
| 127 | B2 |
| 33.3 | B4 |

Molecular target: T25, Peptide-57
Assay: ELISA, Fab on captured biotin-peptide
Procedure: as §1

| EC50 [nM] | Binder |
| --- | --- |
| 25.7 | B5 |
| 85.6 | B2 |
| 9.2 | B4 |

Molecular target: T26, Peptide-59
Assay: ELISA, Fab on captured biotin-peptide
Procedure: as §1

| EC50 [nM] | Binder |
| --- | --- |
| 61.1 | B5 |
| 92.8 | B2 |
| 5.4 | B4 |

Molecular target: T27, Peptide-60
Assay: ELISA, Fab on captured biotin-peptide
Procedure: as §1

| EC50 [nM] | Binder |
| --- | --- |
| 47.8 | B5 |
| 60.4 | B2 |
| 7.7 | B4 |

Molecular target: T28, Peptide-61
Assay: ELISA, Fab on captured biotin-peptide
Procedure: as §1

| EC50 [nM] | Binder |
| --- | --- |
| 191 | B5 |
| 272 | B2 |
| 11.8 | B4 |
